One molecule from patent US20030077290A1 can be followed below.

In this experiment the target is serum IgE from grass pollen allergic patients (171 sera). Put plainly: ELISA competition; sera preabsorbed with rPhl p 6, IgE binding to rPhl p 5.

B1: recombinant Phl p 6 (protein)
chain: GKATTEEQKLIEDINASFRAAMATTANVPPADKYKTFEAAFTVSSKRNLADAVSKAPQLVPKLDEVYNAAYNAADHAAPEDKYEAFVLHFSEALHIIAGTPEVHAVKPGA
Take B1: the percent of Phl p 5-specific IgE preabsorbed was under 20%.
